Molecular target: temperature sensitive C1 repressor polypeptide from thermoinducible bacteriophage P1Cm carrying the c1.100 mutation (bacteriophage P1)
Test: cell-based or functional assay

Coi polypeptide (C1 inactivator polypeptide) from bacteriophage P1
Basal activity (31° C.), Miller units; β-Gal from Op72lacZcoi reporter in K. pneumoniae: 36.4 Miller units
Fold-induction; β-Gal from Op72lacZcoi reporter in K. pneumoniae: 19 fold
Induced activity (42° C.), Miller units; β-Gal from Op72lacZcoi reporter in K. pneumoniae: 698 Miller units

Source: patent US20050118719A1
